# From patent publication US20250171562A1 (ALK ABELL, published 2025)
# Molecular target: T1, recombinant human IgE (human, UniProt P01854-1 1-428)
# T1 construct: made in-house (ALK); preloaded on immobilised FcεRIα in the displacement ELISA
# Test: IgE-FcεRIα displacement ELISA
# Outline: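 Streptavidin-coated plates carried site-specifically biotinylated recombinant human FcεRIα, loaded with recombinant human IgE at 13 ng/ml. sdAbs in a pM–μM series were added for 1 h, and displaced IgE was washed off. Percent displacement was the signal reduction versus the no-sdAb control, giving EC50 and maximal effect.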
# T1 sequence (P01854 other isoform, or with tags, fused parts or gaps): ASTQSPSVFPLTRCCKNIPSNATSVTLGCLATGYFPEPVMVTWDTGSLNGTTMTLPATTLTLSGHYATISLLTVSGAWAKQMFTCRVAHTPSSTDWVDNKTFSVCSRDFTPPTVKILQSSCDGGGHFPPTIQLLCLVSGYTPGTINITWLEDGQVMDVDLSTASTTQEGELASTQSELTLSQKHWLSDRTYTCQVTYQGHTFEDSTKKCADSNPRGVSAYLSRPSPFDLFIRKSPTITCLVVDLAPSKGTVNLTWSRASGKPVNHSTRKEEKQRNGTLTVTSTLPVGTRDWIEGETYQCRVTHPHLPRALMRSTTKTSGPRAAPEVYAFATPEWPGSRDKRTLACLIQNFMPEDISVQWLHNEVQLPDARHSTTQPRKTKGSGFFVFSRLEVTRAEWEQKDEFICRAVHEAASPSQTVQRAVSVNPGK
Binder,EC50 [nM],Max effect [%]
CIgG4E4A1(G4S)1 (Fc fusion) chain 1: GPPCPPCPAPEFLGGPSVFLFPPKPKDTLMISRTPEVTCVVVDVSQEDPEVQFNWYVDGVEVHNAKTKPREEQFNSTYRVVSVLTVLHQDWLNGKEYKCKVSNKGLPSSIEKTISKAKGQPREPQVYTLPPCQEEMTKNQVSLWCLVKGFYPSDIAVEWESNGQPENNYKTTPPVLDSDGSFFLYSRLTVDKSRWQEGNVFSCSVMHEALHNHYTQKSLSLSLGKGGGGSDVQLQESGGGLVQPGGSLRLSCAASGFRFSNYAMRWYRQAPGKEREFVARISSTGFITRYTASVRDRFTISRDNDKNMMYLQLNKLTPQDTAHYYCNAESTDYWGQGTQVTVS chain 2: GPPCPPCPAPEFLGGPSVFLFPPKPKDTLMISRTPEVTCVVVDVSQEDPEVQFNWYVDGVEVHNAKTKPREEQFNSTYRVVSVLTVLHQDWLNGKEYKCKVSNKGLPSSIEKTISKAKGQPREPQVCTLPPSQEEMTKNQVSLSCAVKGFYPSDIAVEWESNGQPENNYKTTPPVLDSDGSFFLVSRLTVDKSRWQEGNVFSCSVMHEALHNHYTQKSLSLSLGKGGGGSEVQLLESGGGLVQPGGSLRLSCAASGFTFGNYDMAWVRQAPGKRPEWVSSIDTGGDITHYADSVKGRFTISRDNAKNTLYLQMNSLRPEDTAVYWCATDEEYALGPNEFDYYGQGTLVTVSS,130,85
CIgG4E3A1(G4S)2 (Fc fusion) chain 1: GPPCPPCPAPEFLGGPSVFLFPPKPKDTLMISRTPEVTCVVVDVSQEDPEVQFNWYVDGVEVHNAKTKPREEQFNSTYRVVSVLTVLHQDWLNGKEYKCKVSNKGLPSSIEKTISKAKGQPREPQVYTLPPCQEEMTKNQVSLWCLVKGFYPSDIAVEWESNGQPENNYKTTPPVLDSDGSFFLYSRLTVDKSRWQEGNVFSCSVMHEALHNHYTQKSLSLSLGKGGGGSGGGGSDVQLQESGGGLVQAGGSLRLACAASGRTLSSYVVSWFRQAPGKERKFVAAITWSGLSTTYLDSVQGRFTISRDNTKDTVYLQMNSLKPQDTAIYYCAAGPNIPSILRTRESEYAYWGQGTQVTVS chain 2: GPPCPPCPAPEFLGGPSVFLFPPKPKDTLMISRTPEVTCVVVDVSQEDPEVQFNWYVDGVEVHNAKTKPREEQFNSTYRVVSVLTVLHQDWLNGKEYKCKVSNKGLPSSIEKTISKAKGQPREPQVCTLPPSQEEMTKNQVSLSCAVKGFYPSDIAVEWESNGQPENNYKTTPPVLDSDGSFFLVSRLTVDKSRWQEGNVFSCSVMHEALHNHYTQKSLSLSLGKGGGGSGGGGSEVQLLESGGGLVQPGGSLRLSCAASGFTFGNYDMAWVRQAPGKRPEWVSSIDTGGDITHYADSVKGRFTISRDNAKNTLYLQMNSLRPEDTAVYWCATDEEYALGPNEFDYYGQGTLVTVSS,50,> 95
CIgG4E4A1(G4S)2 (Fc fusion) chain 1: GPPCPPCPAPEFLGGPSVFLFPPKPKDTLMISRTPEVTCVVVDVSQEDPEVQFNWYVDGVEVHNAKTKPREEQFNSTYRVVSVLTVLHQDWLNGKEYKCKVSNKGLPSSIEKTISKAKGQPREPQVYTLPPCQEEMTKNQVSLWCLVKGFYPSDIAVEWESNGQPENNYKTTPPVLDSDGSFFLYSRLTVDKSRWQEGNVFSCSVMHEALHNHYTQKSLSLSLGKGGGGSGGGGSDVQLQESGGGLVQPGGSLRLSCAASGFRFSNYAMRWYRQAPGKEREFVARISSTGFITRYTASVRDRFTISRDNDKNMMYLQLNKLTPQDTAHYYCNAESTDYWGQGTQVTVS chain 2: GPPCPPCPAPEFLGGPSVFLFPPKPKDTLMISRTPEVTCVVVDVSQEDPEVQFNWYVDGVEVHNAKTKPREEQFNSTYRVVSVLTVLHQDWLNGKEYKCKVSNKGLPSSIEKTISKAKGQPREPQVCTLPPSQEEMTKNQVSLSCAVKGFYPSDIAVEWESNGQPENNYKTTPPVLDSDGSFFLVSRLTVDKSRWQEGNVFSCSVMHEALHNHYTQKSLSLSLGKGGGGSGGGGSEVQLLESGGGLVQPGGSLRLSCAASGFTFGNYDMAWVRQAPGKRPEWVSSIDTGGDITHYADSVKGRFTISRDNAKNTLYLQMNSLRPEDTAVYWCATDEEYALGPNEFDYYGQGTLVTVSS,48,90
CIgG4E3A1(G4S)3 (Fc fusion) chain 1: GPPCPPCPAPEFLGGPSVFLFPPKPKDTLMISRTPEVTCVVVDVSQEDPEVQFNWYVDGVEVHNAKTKPREEQFNSTYRVVSVLTVLHQDWLNGKEYKCKVSNKGLPSSIEKTISKAKGQPREPQVYTLPPCQEEMTKNQVSLWCLVKGFYPSDIAVEWESNGQPENNYKTTPPVLDSDGSFFLYSRLTVDKSRWQEGNVFSCSVMHEALHNHYTQKSLSLSLGKGGGGSGGGGSGGGGSDVQLQESGGGLVQAGGSLRLACAASGRTLSSYVVSWFRQAPGKERKFVAAITWSGLSTTYLDSVQGRFTISRDNTKDTVYLQMNSLKPQDTAIYYCAAGPNIPSILRTRESEYAYWGQGTQVTVS chain 2: GPPCPPCPAPEFLGGPSVFLFPPKPKDTLMISRTPEVTCVVVDVSQEDPEVQFNWYVDGVEVHNAKTKPREEQFNSTYRVVSVLTVLHQDWLNGKEYKCKVSNKGLPSSIEKTISKAKGQPREPQVCTLPPSQEEMTKNQVSLSCAVKGFYPSDIAVEWESNGQPENNYKTTPPVLDSDGSFFLVSRLTVDKSRWQEGNVFSCSVMHEALHNHYTQKSLSLSLGKGGGGSGGGGSGGGGSEVQLLESGGGLVQPGGSLRLSCAASGFTFGNYDMAWVRQAPGKRPEWVSSIDTGGDITHYADSVKGRFTISRDNAKNTLYLQMNSLRPEDTAVYWCATDEEYALGPNEFDYYGQGTLVTVSS,36,90

# Further lines, results first:
EC50 [nM],Max effect [%],Binder
–,30,CIgG4F1A1(G4S)1 (Fc fusion) chain 1: GPPCPPCPAPEFLGGPSVFLFPPKPKDTLMISRTPEVTCVVVDVSQEDPEVQFNWYVDGVEVHNAKTKPREEQFNSTYRVVSVLTVLHQDWLNGKEYKCKVSNKGLPSSIEKTISKAKGQPREPQVYTLPPCQEEMTKNQVSLWCLVKGFYPSDIAVEWESNGQPENNYKTTPPVLDSDGSFFLYSRLTVDKSRWQEGNVFSCSVMHEALHNHYTQKSLSLSLGKGGGGSDVQLQESGGGLVQAGGSLKLSCAASGGSLSRYDMGWFRQAPGKEREFVARISWSGTTKYYADAVKGRFAISRDNAKNTVYLQMNSLKPEDTAVYYCAAAFYGNRGYYDVNAYTSSGQGTQVTVS chain 2: GPPCPPCPAPEFLGGPSVFLFPPKPKDTLMISRTPEVTCVVVDVSQEDPEVQFNWYVDGVEVHNAKTKPREEQFNSTYRVVSVLTVLHQDWLNGKEYKCKVSNKGLPSSIEKTISKAKGQPREPQVCTLPPSQEEMTKNQVSLSCAVKGFYPSDIAVEWESNGQPENNYKTTPPVLDSDGSFFLVSRLTVDKSRWQEGNVFSCSVMHEALHNHYTQKSLSLSLGKGGGGSEVQLLESGGGLVQPGGSLRLSCAASGFTFGNYDMAWVRQAPGKRPEWVSSIDTGGDITHYADSVKGRFTISRDNAKNTLYLQMNSLRPEDTAVYWCATDEEYALGPNEFDYYGQGTLVTVSS
22,95,CIgG4E4A1(G4S)3 (Fc fusion) chain 1: GPPCPPCPAPEFLGGPSVFLFPPKPKDTLMISRTPEVTCVVVDVSQEDPEVQFNWYVDGVEVHNAKTKPREEQFNSTYRVVSVLTVLHQDWLNGKEYKCKVSNKGLPSSIEKTISKAKGQPREPQVYTLPPCQEEMTKNQVSLWCLVKGFYPSDIAVEWESNGQPENNYKTTPPVLDSDGSFFLYSRLTVDKSRWQEGNVFSCSVMHEALHNHYTQKSLSLSLGKGGGGSGGGGSGGGGSDVQLQESGGGLVQPGGSLRLSCAASGFRFSNYAMRWYRQAPGKEREFVARISSTGFITRYTASVRDRFTISRDNDKNMMYLQLNKLTPQDTAHYYCNAESTDYWGQGTQVTVS chain 2: GPPCPPCPAPEFLGGPSVFLFPPKPKDTLMISRTPEVTCVVVDVSQEDPEVQFNWYVDGVEVHNAKTKPREEQFNSTYRVVSVLTVLHQDWLNGKEYKCKVSNKGLPSSIEKTISKAKGQPREPQVCTLPPSQEEMTKNQVSLSCAVKGFYPSDIAVEWESNGQPENNYKTTPPVLDSDGSFFLVSRLTVDKSRWQEGNVFSCSVMHEALHNHYTQKSLSLSLGKGGGGSGGGGSGGGGSEVQLLESGGGLVQPGGSLRLSCAASGFTFGNYDMAWVRQAPGKRPEWVSSIDTGGDITHYADSVKGRFTISRDNAKNTLYLQMNSLRPEDTAVYWCATDEEYALGPNEFDYYGQGTLVTVSS
–,40,CIgG4E4A1(RS) (Fc fusion) chain 1: GPPCPPCPAPEFLGGPSVFLFPPKPKDTLMISRTPEVTCVVVDVSQEDPEVQFNWYVDGVEVHNAKTKPREEQFNSTYRVVSVLTVLHQDWLNGKEYKCKVSNKGLPSSIEKTISKAKGQPREPQVYTLPPCQEEMTKNQVSLWCLVKGFYPSDIAVEWESNGQPENNYKTTPPVLDSDGSFFLYSRLTVDKSRWQEGNVFSCSVMHEALHNHYTQKSLSLSLGKRSDVQLQESGGGLVQPGGSLRLSCAASGFRFSNYAMRWYRQAPGKEREFVARISSTGFITRYTASVRDRFTISRDNDKNMMYLQLNKLTPQDTAHYYCNAESTDYWGQGTQVTVS chain 2: GPPCPPCPAPEFLGGPSVFLFPPKPKDTLMISRTPEVTCVVVDVSQEDPEVQFNWYVDGVEVHNAKTKPREEQFNSTYRVVSVLTVLHQDWLNGKEYKCKVSNKGLPSSIEKTISKAKGQPREPQVCTLPPSQEEMTKNQVSLSCAVKGFYPSDIAVEWESNGQPENNYKTTPPVLDSDGSFFLVSRLTVDKSRWQEGNVFSCSVMHEALHNHYTQKSLSLSLGKRSEVQLLESGGGLVQPGGSLRLSCAASGFTFGNYDMAWVRQAPGKRPEWVSSIDTGGDITHYADSVKGRFTISRDNAKNTLYLQMNSLRPEDTAVYWCATDEEYALGPNEFDYYGQGTLVTVSS
–,0,CIgG4F1A1(RS) (Fc fusion) chain 1: GPPCPPCPAPEFLGGPSVFLFPPKPKDTLMISRTPEVTCVVVDVSQEDPEVQFNWYVDGVEVHNAKTKPREEQFNSTYRVVSVLTVLHQDWLNGKEYKCKVSNKGLPSSIEKTISKAKGQPREPQVYTLPPCQEEMTKNQVSLWCLVKGFYPSDIAVEWESNGQPENNYKTTPPVLDSDGSFFLYSRLTVDKSRWQEGNVFSCSVMHEALHNHYTQKSLSLSLGKRSDVQLQESGGGLVQAGGSLKLSCAASGGSLSRYDMGWFRQAPGKEREFVARISWSGTTKYYADAVKGRFAISRDNAKNTVYLQMNSLKPEDTAVYYCAAAFYGNRGYYDVNAYTSSGQGTQVTVS chain 2: GPPCPPCPAPEFLGGPSVFLFPPKPKDTLMISRTPEVTCVVVDVSQEDPEVQFNWYVDGVEVHNAKTKPREEQFNSTYRVVSVLTVLHQDWLNGKEYKCKVSNKGLPSSIEKTISKAKGQPREPQVCTLPPSQEEMTKNQVSLSCAVKGFYPSDIAVEWESNGQPENNYKTTPPVLDSDGSFFLVSRLTVDKSRWQEGNVFSCSVMHEALHNHYTQKSLSLSLGKRSEVQLLESGGGLVQPGGSLRLSCAASGFTFGNYDMAWVRQAPGKRPEWVSSIDTGGDITHYADSVKGRFTISRDNAKNTLYLQMNSLRPEDTAVYWCATDEEYALGPNEFDYYGQGTLVTVSS
